# Measured values reported in US20200277374A1 (Alector, published 2020).
# B1: 4E3 Fab (Fab, V domains shown)
# VH: EVQLVESGGALVKPGGSLKISCAVSGFIFSNYDMSWVRQNPEKRLEWVATISSGGGYTYYPDSVKGRFTISRDNAKNALYLQMSSLRSEDTALYYCTRHGYGNYDWYFDVWGAGATVTVSS
# VL: QIVLTQSPAILSASPGEKVTMTCSANSSFTYMYWYQQKPGSSPRLLIFDTSNLASGVPIRFSGSGSGTSYSLTISRMEAEDTATYYCQQWSSSPLTFGAGTKLELK
# Tests used:
# R124A [1] = target: T1, R124A (human, UniProt Q9Y286); assay: flow cytometry on HEK-293T cells expressing the mutant, mock signal subtracted
# T1 construct: clone of the siglec-7 mutation library; also called Siglec-7 R124A
# T1 sequence (Q9Y286 19-467 R124A limits assumed): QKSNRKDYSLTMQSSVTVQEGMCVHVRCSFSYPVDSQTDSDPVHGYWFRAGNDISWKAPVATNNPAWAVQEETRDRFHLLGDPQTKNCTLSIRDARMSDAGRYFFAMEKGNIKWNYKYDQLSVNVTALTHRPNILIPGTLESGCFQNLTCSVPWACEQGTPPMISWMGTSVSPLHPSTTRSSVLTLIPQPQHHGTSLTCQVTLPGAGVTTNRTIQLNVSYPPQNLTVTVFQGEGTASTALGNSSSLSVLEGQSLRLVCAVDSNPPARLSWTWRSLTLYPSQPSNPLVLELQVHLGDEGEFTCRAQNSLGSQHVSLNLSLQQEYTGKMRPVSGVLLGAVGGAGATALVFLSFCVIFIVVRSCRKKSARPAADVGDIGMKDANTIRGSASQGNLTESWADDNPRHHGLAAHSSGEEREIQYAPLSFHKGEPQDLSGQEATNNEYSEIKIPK
# Description: (§1) Shotgun mutagenesis epitope mapping of anti-siglec-7 antibodies was performed using an alanine-scanning library for the siglec-7 protein. […] Each of residues 19 to 353 was mutated, representing the siglec-7 extracellular domain, most to alanine, while alanine codons were mutated to serine. In total, 335 siglec-7 mutant expression constructs were generated, sequences confirmed, and arrayed into a 384-well plate, one mutant per well.
# Cells were then incubated with MAbs diluted in 10% o normal goat serum (NGS) (Sigma-Aldrich, St. Louis, Mo.). Prior to library screening, primary MAb concentrations were determined using an independent immunofluorescence titration curve against cells expressing wild-type siglec-7 to ensure that signals were within the linear range of detection. MAbs were detected using 3.75 μg/ml AlexaFluor488-conjugated secondary antibody (Jackson immunoResearch Laboratories, Westgrove, Pa.) in 10% NGS. […] Mean cellular fluorescence was detected using the Intellicyt high throughput flow cytometer (HTFC, Intellicyt, Albuquerque, N. Mex.). MAb reactivities against each mutant clone were calculated relative to wild-type siglec-7 protein reactivity by subtracting the signal from mock-transfected controls, and normalizing to the signal from wild-type siglec-7-transfected controls.
# M30A = target: T2, M30A (human, UniProt Q9Y286); assay: flow cytometry on HEK-293T cells expressing the mutant; mean % of wild-type signal (range of duplicates)
# T2 construct: clone of the siglec-7 mutation library; also called Siglec-7 M30A
# T2 sequence (Q9Y286 19-467 M30A limits assumed): as the sequence (Q9Y286 19-467 R124A limits assumed) above, with M12A, A106R counted along it
# Description: as §1
# (§2) Cells were then incubated with MAbs diluted in 10% o normal goat serum (NGS) (Sigma-Aldrich, St. Louis, Mo.). Prior to library screening, primary MAb concentrations were determined using an independent immunofluorescence titration curve against cells expressing wild-type siglec-7 to ensure that signals were within the linear range of detection. MAbs were detected using 3.75 μg/ml AlexaFluor488-conjugated secondary antibody (Jackson immunoResearch Laboratories, Westgrove, Pa.) in 10% NGS. Cells were washed twice with PBS−/− and resuspended in Cellstripper (Cellgro, Manassas, Va.) with 0.1% BSA (Sigma-Aldrich, St. Louis, Mo.). Mean cellular fluorescence was detected using the Intellicyt high throughput flow cytometer (HTFC, Intellicyt, Albuquerque, N. Mex.). MAb reactivities against each mutant clone were calculated relative to wild-type siglec-7 protein reactivity by subtracting the signal from mock-transfected controls, and normalizing to the signal from wild-type siglec-7-transfected controls.
# R45A = target: T3, R45A (human, UniProt Q9Y286); assay: as above
# T3 construct: clone of the siglec-7 mutation library; also called Siglec-7 R45A
# T3 sequence (Q9Y286 19-467 R45A limits assumed): as the sequence (Q9Y286 19-467 R124A limits assumed) above, with R27A, A106R counted along it
# Description: as §1, §2
# R124A [2] = target: T1, R124A; assay: as above
# Description: as §1, §2
# S47A = target: T4, S47A (human, UniProt Q9Y286); assay: as above
# T4 construct: clone of the siglec-7 mutation library; also called Siglec-7 S47A
# T4 sequence (Q9Y286 19-467 S47A limits assumed): as the sequence (Q9Y286 19-467 R124A limits assumed) above, with S29A, A106R counted along it
# Description: as §1, §2
# I72A = target: T5, I72A (human, UniProt Q9Y286); assay: as above
# T5 construct: clone of the siglec-7 mutation library; also called Siglec-7 I72A
# T5 sequence (Q9Y286 19-467 I72A limits assumed): as the sequence (Q9Y286 19-467 R124A limits assumed) above, with I54A, A106R counted along it
# Description: as §1, §2
# Q31A = target: T6, Q31A (human, UniProt Q9Y286); assay: as above
# T6 construct: clone of the siglec-7 mutation library; also called Siglec-7 Q31A
# T6 sequence (Q9Y286 19-467 Q31A limits assumed): as the sequence (Q9Y286 19-467 R124A limits assumed) above, with Q13A, A106R counted along it
# Description: as §1, §2
# W74A = target: T7, W74A (human, UniProt Q9Y286); assay: as above
# T7 construct: clone of the siglec-7 mutation library; also called Siglec-7 W74A
# T7 sequence (Q9Y286 19-467 W74A limits assumed): as the sequence (Q9Y286 19-467 R124A limits assumed) above, with W56A, A106R counted along it
# Description: as §1, §2
# N81A = target: T8, N81A (human, UniProt Q9Y286); assay: as above
# T8 construct: clone of the siglec-7 mutation library; also called Siglec-7 N81A
# T8 sequence (Q9Y286 19-467 N81A limits assumed): as the sequence (Q9Y286 19-467 R124A limits assumed) above, with N63A, A106R counted along it
# Description: as §1, §2
# M185A = target: T9, M185A (human, UniProt Q9Y286); assay: as above
# T9 construct: clone of the siglec-7 mutation library; also called Siglec-7 M185A
# T9 sequence (Q9Y286 19-467 M185A limits assumed): as the sequence (Q9Y286 19-467 R124A limits assumed) above, with A106R, M167A counted along it
# Description: as §1, §2
# V44A = target: T10, V44A (human, UniProt Q9Y286); assay: as above
# T10 construct: clone of the siglec-7 mutation library; also called Siglec-7 V44A
# T10 sequence (Q9Y286 19-467 V44A limits assumed): as the sequence (Q9Y286 19-467 R124A limits assumed) above, with V26A, A106R counted along it
# Description: as §1, §2
# T107A = target: T11, T107A (human, UniProt Q9Y286); assay: as above
# T11 construct: clone of the siglec-7 mutation library; also called Siglec-7 T107A
# T11 sequence (Q9Y286 19-467 T107A limits assumed): as the sequence (Q9Y286 19-467 R124A limits assumed) above, with T89A, A106R counted along it
# Description: as §1, §2
# K104A = target: T12, K104A (human, UniProt Q9Y286); assay: as above
# T12 construct: clone of the siglec-7 mutation library; also called Siglec-7 K104A
# T12 sequence (Q9Y286 19-467 K104A limits assumed): as the sequence (Q9Y286 19-467 R124A limits assumed) above, with K86A, A106R counted along it
# Description: as §1, §2
# F48A = target: T13, F48A (human, UniProt Q9Y286); assay: as above
# T13 construct: clone of the siglec-7 mutation library; also called Siglec-7 F48A
# T13 sequence (Q9Y286 19-467 F48A limits assumed): as the sequence (Q9Y286 19-467 R124A limits assumed) above, with F30A, A106R counted along it
# Description: as §1, §2
# Y50A = target: T14, Y50A (human, UniProt Q9Y286); assay: as above
# T14 construct: clone of the siglec-7 mutation library; also called Siglec-7 Y50A
# T14 sequence (Q9Y286 19-467 Y50A limits assumed): as the sequence (Q9Y286 19-467 R124A limits assumed) above, with Y32A, A106R counted along it
# Description: as §1, §2
binder,measurement,setting,value
B1,binding result,R124A [1],no binding
same,Binding Reactivity (% WT),M30A,123 % WT
same,Binding Reactivity (% WT),R45A,129 % WT
same,Binding Reactivity (% WT),R124A [2],1 % WT
same,Binding Reactivity (% WT),S47A,103 % WT
same,Binding Reactivity (% WT),I72A,26.5 % WT
same,Binding Reactivity (% WT),Q31A,112 % WT
same,Binding Reactivity (% WT),W74A,25.7 % WT
same,Binding Reactivity (% WT),N81A,22 % WT
same,Binding Reactivity (% WT),M185A,91.6 % WT
same,Binding Reactivity (% WT),V44A,115 % WT
same,Binding Reactivity (% WT),T107A,124 % WT
same,Binding Reactivity (% WT),K104A,115 % WT
same,Binding Reactivity (% WT),F48A,146 % WT
same,Binding Reactivity (% WT),Y50A,139 % WT
